Experiments:
[1] = molecular target: soluble SARS-CoV-2 Spike (S) (SARS-CoV-2); experiment: […], PBS running buffer; […]
[2] = molecular target: HCoV-229E Spike antigen (HCoV-229E) (UniProt P15423); experiment: […], PBS running buffer; […]

| Substance | stoichiometry N [1] | stoichiometry N [2] |
| --- | --- | --- |
| soluble SARS-CoV-2 Spike (S) (domain or fragment) | 3 |  |
| HCoV-229E Spike antigen (from UniProt P15423 16-1173) (natural protein) |  | 3 |
